“Also recorded” adds a separate entry of the source.
Legend:
[1] = biological target: mouse CD32B (FcγRIIB) (mouse) (UniProt P08101); experiment: receptor saturation at 10 ug/ml serum concentration of AT-130-2; separate experiments not shown
wildtype C57/BL6 mice [2] = experiment: Macroscopic IRR scoring (0-2) of mice after antibody injection; format: in vivo, mouse
Description: Six to eight weeks-old (17-20 g) female C57/BL6 and Balb C mice were obtained from Taconic or Janvier. Mice were injected i.v with mouse anti-CD32B AT-130-2 IgG2a either as a bulk dose of 200 ug/mouse or as a split-dose with 8 ug/mouse followed by 200 ug/mouse. […]
Mice were monitored post injection with regards to changes in behavior and macroscopic symptoms such as isolation, mobility, and fur condition. Macroscopic IRRs scoring system of 0-2 was set up based on the observations.
These premedications were given i.p 1h prior to injection i.v of mouse anti-CD32B AT-130-2 IgG2a as a bulk dose of 200 ug/mouse. […]
Mice were monitored post injection with regard to changes in behavior and macroscopic symptoms such as isolation, mobility, and fur condition. Macroscopic IRRs scoring system of 0-2 was set up based on the observations: […]

[3] = tested on: human subjects with non-hodgkins B-cell lymphoma; experiment: IRR grading in clinical studies with BI-1206; format: in vivo
Excerpt: The IRR that may be prevented or mitigated as described herein and/or that may be predicted with the method described herein may be any IRR. The adverse event denoted “Infusion related reaction” in the CTCAE version 5.0 is used for disorders characterized by adverse reaction to the infusion of pharmacological or biological substances; belonging to the group of “Injury, poisoning and procedural complications”.

[4] = tested on: human subjects with non-hodgkins B-cell lymphoma; experiment: Platelet counts in clinical studies with BI-1206; format: in vivo
Description: (§1) Platelet counts, ALT concentrations and IRR grading were obtained from clinical sites where anayzed and reported according local standard procedures.

[5] = tested on: human subjects with non-hodgkins B-cell lymphoma; experiment: Cytokine analysis of plasma/serum of human subjects (MSD); format: in vivo
Description: For cytokine concentrations, frozen plasma samples were thawed and diluted ×2 and ×8. Two parallel set of cytokines were analyzed, the proinflammatory assay with IL-6, IL-8, TNF-α, IFN-γ, IL-10, IL-2 and IL-4 (MesoScale Discovery (MSD) #K15049), and the chemokine assay with MIP-1β, IL-1β, IL-23, IL-12p 70, TARC and VEGF (MSD #K15067). The assays followed the manufacturer's protocol as outlined briefly: 50 μL of sample and calibration standard were added to the appropriate MSD plates and incubated. Following washing, 25 µL of SULFO-TAG detection antibody mixture were added to each well of the corresponding plate. The plates were analyzed on a QuickPlex SQ120 Reader instrument (MSD) and cytokine concentration was calculated using the MSD software (Discovery Workbench, 2013; version LSR-4-0-12).

FcgRIIb = biological target: T1, FcgRIIb (Homo sapiens, UniProt P31994); experiment: FcgRIIb receptor occupancy on peripheral B cells (flow cytometry); format: in vivo; conditions: 100 mg BI-1206
T1 construct: FcgRIIb receptor occupancy on peripheral B cells (A) and peripheral B cell levels (B) in human subjects; endogenous in cells; host or cells: peripheral CD19+ B cells in whole blood of human subjects (same method also used on hFcgRIIB transgenic mice)
T1 sequence (P31994 43-310): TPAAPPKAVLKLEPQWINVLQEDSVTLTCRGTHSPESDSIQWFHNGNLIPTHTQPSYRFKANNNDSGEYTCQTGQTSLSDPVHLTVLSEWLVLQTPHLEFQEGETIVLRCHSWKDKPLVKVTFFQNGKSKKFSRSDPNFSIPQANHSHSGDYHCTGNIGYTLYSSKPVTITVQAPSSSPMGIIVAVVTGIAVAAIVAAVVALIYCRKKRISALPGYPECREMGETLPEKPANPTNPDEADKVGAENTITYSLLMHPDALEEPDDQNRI
Description: The FcgRIIb receptor occupancy in humans and hFcgRIIb transgenic mice was analyzed using flow cytometry. Whole blood from was incubated with either 005-C05 antibody (targeting hFcgRIIb) or anti-hCD32-AF647 antibody. 005-C05 binds the same epitope as BI-1206 but with much lower affinity. In the analysis, the Geo Mean of respectively mAb (005-C05 and anti-human CD32) was acquired on the CD19+ cell population. Receptor occupancy (RO) was calculated using the following equations: RO (%)=((Total Receptors-Normalized Free Receptors)*100)/Total Receptors. All replicates of 005-C05 geo mean of CD19+ cells were then multiplied by the Normalization factor.

peripheral B lymphocytes = experiment: Peripheral B lymphocyte depletion in human subjects; format: in vivo; conditions: 100 mg BI-1206
[6] = tested on: human subjects with non-hodgkins B-cell lymphoma; experiment: ALT/AST in clinical studies with BI-1206
Description: as §1

wildtype C57/BL6 mice [7] = experiment: Platelet count in fresh mouse blood (Vetscan); format: in vivo; conditions: 40 mg/kg, 1 hour only, 10 mg/kg AT-130-2 IgG2a i.v.
Description: Blood samples were collected from vena saphena 20 min post injection of bulk dose of anti-CD32B for instant blood count analysis. For liver enzyme and cytokine analysis, the mice were bled from the aorta under isoflurane anesthesia just prior to sacrifice. Samples for liver enzymes and cytokines were collected 1h and respectively 3h after bulk dose.
Platelet counts were analyzed in fresh blood using a Vetscan (Vetscan HM5 Abaxis, Triolab).
Blood samples were collected from vena saphena for instant blood count analysis. For serum concentrations of AT130-2, liver enzyme and cytokine analysis, the mice were bled from the aorta under isoflurane anesthesia just prior to sacrifice.
Blood samples were collected from vena saphena for instant blood count analysis.

[8] = 70 mg BI-1206, subjects 501-001 and 503-002
[9] = ≥50 mg BI-1206 (FIG. 6: 70-100 mg)

Sequence of mouse CD32B (FcγRIIB) (mouse) (P08101 30-207 limits assumed): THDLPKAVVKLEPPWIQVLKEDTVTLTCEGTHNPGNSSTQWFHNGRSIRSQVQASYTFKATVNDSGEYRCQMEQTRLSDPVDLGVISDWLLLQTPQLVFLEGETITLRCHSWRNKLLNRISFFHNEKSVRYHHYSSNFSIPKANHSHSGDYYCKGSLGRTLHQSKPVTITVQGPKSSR

## AT-130-2 IgG2a (anti-mouse CD32B IgG2a clone AT130-2) (antibody)
[1]
  receptor saturation: 100%

## CCCCCCCCCCCCCCCCCCNC(=O)OCC(COP(=O)([O-])OCC[n+]1ccsc1)OC (stereo not drawn) [anti-PAF]
Wildtype C57/BL6 mice [2]; i.p. 1h prior to i.v. AT-130-2 IgG2a bulk dose 200 ug/mouse
  inhibition of IRRs by other pre-medications: None of these pre-medications could inhibit IRRs; also recorded: none of the tested substances (anti-PAF, anti-IL-6, anti-histamine and a leukotrien-antagonist) could prevent the IRRs

## BI-1206: anti-FcγRIIB antibody with light chain SEQ ID No: 1 and heavy chain SEQ ID No: 2
[3]; 30 mg BI-1206, subject 201-003, 9 administrations
  IRR's without two-dose premedication: repeatedly experienced IRR's
[3]; 30 mg BI-1206, subject 201-003, 10th administration
  grade of IRR's with two doses of dexamethasone: 1
[3]; 70 mg BI-1206, subjects 501-001 and 503-002, 12 mg / 4 mg evening before and 20 mg 30 minutes prior
  IRRs after premedication with two doses of dexamethasone: None of the subjects suffered any IRRs; also recorded: did not suffer IRRs
[3]; 70 mg BI-1206 with rituximab, subjects 501-001 and 503-002, dexamethasone (20 mg) only 30 minutes prior to infusion
  grade of IRRs: 2-3
[3]; 70-100 mg BI-1206, study 17-BI-1206-02
  severity and frequency of IRRs after implementation of two-dose corticosteroid premedication: Significantly lower frequency and severity of IRRs; also recorded: statistically significant reduced severity and frequency of IRRs
[3]; i.v., human subjects
  infusion related reactions (IRRs) during BI-1206 infusions: frequently associated with IRRs; also recorded: Frequent
[4]; 30 mg BI-1206, subject 201-003
  platelet decrease: never been seen
[4]; [8]
  platelet decrease after premedication with two doses of dexamethasone: no/low platelet decrease
[4]; [9]
  platelets: The decrease is transient
  seriousness of thrombocytopenia: never serious or associated with bleeding; also recorded: not been serious nor associated with bleeding
  time to resolution of most thrombocytopenia episodes: within a week
[5]; 70-100 mg BI-1206 (FIG. 6), serum/plasma available
  subjects with transient cytokine release: 7 of 8
[5]; ≥70 mg BI-1206
  association of cytokine release with clinical symptoms: not been associated with clinical symptoms
  cytokines included in the release: macrophage inflammatory protein (MIP)-1β, tumor necrosis factor (TNF)-α, interleukin (IL)-10, IL-8, IL-6, and IL-4
  time of peak cytokine release: immediately after infusion
  time to normalization of cytokines: ≤ 24 h
FcgRIIb
  FcγRIIB receptor occupancy on peripheral B cells: ~100%
  duration of receptor saturation: up to 48 hours
Peripheral B lymphocytes
  peripheral B lymphocytes: transient depletion
  time to recovery of peripheral B lymphocytes: approximately 7 days
[6]; [8]
  ALT/AST increase after premedication with two doses of dexamethasone: no ALT/AST increase
[6]; ≥70 mg BI-1206
  subjects with significant ALT and AST increase: 3 out of 16

## C[C@H]1C[C@H]2[C@@H]3CCC4=CC(=O)C=C[C@]4(C)[C@@]3(F)[C@@H](O)C[C@]2(C)[C@@]1(O)C(=O)CO [betamethasone]
Wildtype C57/BL6 mice [2]; 40 mg/kg, 1 hour only, 10 mg/kg AT-130-2 IgG2a i.v.
  effect of single premedication on macroscopic symptoms (IRRs): did not inhibited
Wildtype C57/BL6 mice [2]; 40 mg/kg, 24 hours only, 10 mg/kg AT-130-2 IgG2a i.v.
  grade of macroscopic symptoms after single premedication: 1
Wildtype C57/BL6 mice [7]
  effect of single premedication on platelet decrease: did not inhibited
